From US20200095296A1 (TRUSTEES OF COLUMBIA UNIVERSITY IN THE CITY OF NEW YORK, published 2020)
Where a chain is given by its changes, count along the chain named. Where no end group is shown, it is not given here. [ ]: non-standard residue; d: D form. pY = N[C@@H](Cc1ccc(OP(=O)(O)O)cc1)C(=O)O

Legend:
HLA DPB1*04:02 = biological target: T1, HLA DPB1*04:02 (human); test: competition with radiolabeled peptide, purified HLA
T1 construct: purified HLA class II molecule; only the beta-chain allele is printed

HLA DPB1*02:01 = biological target: T2, HLA DPB1*02:01 (human); test: as above
T2 chain 1: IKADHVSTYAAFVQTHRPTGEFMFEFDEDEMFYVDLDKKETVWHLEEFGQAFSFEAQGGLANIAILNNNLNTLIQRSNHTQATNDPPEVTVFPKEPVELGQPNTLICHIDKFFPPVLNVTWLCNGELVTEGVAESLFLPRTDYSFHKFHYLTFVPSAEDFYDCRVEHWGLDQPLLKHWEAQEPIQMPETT
T2 chain 2: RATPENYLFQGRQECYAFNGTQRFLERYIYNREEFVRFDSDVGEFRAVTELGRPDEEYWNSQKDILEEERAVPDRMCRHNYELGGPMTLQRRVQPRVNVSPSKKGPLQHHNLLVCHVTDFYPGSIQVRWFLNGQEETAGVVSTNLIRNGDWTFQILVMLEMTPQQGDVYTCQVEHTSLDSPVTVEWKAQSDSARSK

HLA DPB1*04:01 = biological target: T3, HLA DPB1*04:01 (human); test: as above
T3 chain 1: T2 chain 1
T3 chain 2: T2 chain 2 with V36A, D55A, E56A, E69K

HLA DPB1*05:01 = biological target: T4, HLA DPB1*05:01 (human); test: as above
T4 construct: purified HLA class II molecule; only the beta-chain allele is printed

HLA DQB1*05:01 = biological target: T5, HLA DQB1*05:01 (human); test: as above
T5 construct: purified HLA class II molecule; only the beta-chain allele is printed

HLA DRB3*01:01 = biological target: T6, HLA DRB3*01:01 (human); test: as above
T6 construct: purified HLA class II molecule; only the beta-chain allele is printed

HLA DQB1*04:02 = biological target: T7, HLA DQB1*04:02 (human); test: as above
T7 construct: purified HLA class II molecule; only the beta-chain allele is printed

HLA DRB1*04:01 = biological target: T8, HLA DRB1*04:01 (human); test: as above
T8 construct: purified HLA class II molecule; only the beta-chain allele is printed

HLA A*11:01 = biological target: T9, HLA A*11:01 (human); test: competition with radiolabeled peptide, purified HLA A*11:01
T9 construct: purified HLA A*11:01 molecules

B1: alpha-syn peptide aa32KTKEGVLYVGSKTKEaa46 phosphorylated at Y39 (peptide)
peptide: KTKEGVL[pY]VGSKTKE
notes: synthetic post-translationally modified 15-mer; also called Phospho-Y
- IC50 (HLA DPB1*04:02): 1600 nM
- IC50 (HLA DPB1*02:01): 620 nM
- IC50 (HLA DPB1*04:01): 937 nM
- IC50 (HLA DPB1*05:01): 777 nM

Binder: DNEAYEMPSEEGYQD (synthetic 15-mer of alpha-synuclein) [alpha-syn peptide aa121DNEAYEMPSEEGYQDaa135]
- IC50 (HLA DQB1*05:01): 7 nM
- IC50 (HLA DRB3*01:01): 787 nM
- IC50 (HLA DQB1*04:02): 51 nM
- IC50 (HLA DRB1*04:01): 76 nM

Binder: VLYVGSKTK (synthetic 9-mer; also called the 9 mer) [alpha-syn peptide aa37VLYVGSKTKaa45]
- IC50 (HLA A*11:01): 161 nM
